Data published in paper PMC10504179.

B1: single nicked 40 nt dsDNA (Template T + N1 + N2) (dsDNA)
DNA 1: ATTGAGTGGACAAAGTATCGTAGGGTAGTATTGGTGGATA
DNA 2: TATCCACCAATACTACCCTA
DNA 3: CGATACTTTGTCCACTCAAT
modifications: none; 5' end at nick not phosphorylated
B2: 1 nt gapped 40 nt dsDNA (Template T + G1 + G2) (dsDNA)
DNA 1: B1 DNA 1
DNA 2: TATCCACCAATACTACCCTAC
DNA 3: ATACTTTGTCCACT
modifications: none; 5' end at gap not phosphorylated
B3: single nick with 10 nt 5'-flap 40 nt dsDNA (Template T + F1 + N2) (dsDNA)
DNA 1: B1 DNA 1
DNA 2: TATCCACCAATACTACCCTA
DNA 3: TAACGCTGGGCGATACTTTGTCCACTCAAT
modifications: none; 5' end of flap not phosphorylated

Legend:
[1] = target: DrLigA (Deinococcus radiodurans, UniProt Q9RSQ5 1-700); assay: EMSA; 5 mM MgSO4, 5 mM MnSO4, 300 µM NAD+; 100 nM DNA, tight at 10-fold protein; 20 mM Bis-Tris pH 6.0, 5 mM MgSO4, 5 mM MnSO4, 300 µM NAD+, 25% glycerol; 100 nM DNA; 15 min at room temperature; 6% PAGE, 1x TBE, 4 °C
[2] = target: DrLigAΔBRCT (Deinococcus radiodurans, UniProt Q9RSQ5 1-600); assay: EMSA; 5 mM MgSO4, 5 mM MnSO4, 300 µM NAD+; no complex up to 1:10 DNA:protein (100 nM DNA); 20 mM Bis-Tris pH 6.0, 5 mM MgSO4, 5 mM MnSO4, 300 µM NAD+, 25% glycerol; 100 nM DNA; 15 min at room temperature; 6% PAGE, 1x TBE, 4 °C

Binder | binding result [1] | binding result [2]
B1 | binds | no binding
B2 | binds | no binding
B3 |  | no binding
